One series has as its system full-length Grb7. Nature of the series: Analytical ultracentrifugation: dimerisation of full-length Grb7. The format is binding, human. On the procedure:
(§1) Figure 4 Sedimentation equilibrium analysis of the Grb7 SH2 and Grb7. (a) Absorbance at 280 nm verses radius data at sedimentation equilibrium for Grb7 SH2 at an initial loading concentration of 36 μM. The data collected at 14,000 rpm (circles), 16,600 rpm (squares), 24,300 rpm (diamonds) and 28,800 rpm (triangles) were fitted simultaneously using the nonlinear regression program. (b) Absorbance at 280 nm verses radius data at sedimentation equilibrium for Grb7 at an initial loading concentrations of 12 μM. The data collected at 10,000 rpm (circles) and 11,800 rpm (squares) were fitted simultaneously using the nonlinear regression program NONLIN [77]. The solid line represents the calculated fit to a monomer-dimer model. […]
(§2) Grb7 SH2 domain and full-length Grb7 were analysed at loading concentrations of A280 values of 0.1, 0.3 and 0.6. […] Absorption profiles were recorded at 280 and 360 nm with automatic dialysate absorption compensation. The data were recorded in 0.001-cm steps and ten scans were averaged to produce each profile. The system was deemed to be in equilibrium when profiles recorded 4 h apart were identical. The data were analysed by fitting models of association to the absorbance versus radial position distribution using the program NONLIN [48, 49]. […] The density of the buffer solution was calculated to be 1.00379 g/ml using the program […] v1.08 [74].

Series [1] concerns the target pY1139 phosphopeptide (ErbB2) (Homo sapiens) (UniProt P04626). The conditions noted are these: cited from earlier work.
A further series has as its system breast cancer cells. The conditions noted are these: co-treatment with cell permeable G7-18NATE peptide, ref [19]; cited from earlier work.
A further series concerns the target T1, Grb7 SH2 domain (Homo sapiens, UniProt Q14451).
T1 construct: encoding residues 415-532 of human Grb7; GST (N, cleaved yes); made in house; host or cells: Escherichia coli BL21(DE3).pLysS
Nature of the series: Analytical ultracentrifugation: dimerisation of Grb7 SH2 domain. The class given is binding. The protocol: as §1, §2

Series [2] deals with the molecule itself. Nature of the series: AUC; sedimentation equilibrium, 20°C, Grb7 SH2 at an initial loading concentration of 36 μM, 14,000-28,800 rpm, 50 mM MES pH 6.6, 100 mM NaCl, 1 mM DTT; global fit to a monomer-dimer model (NONLIN); dimer to monomers.

“Also recorded” adds a separate entry of the source.

For the molecule “full-length Grb7: Full-length Grb7 (residues 1 – 532)”, the “dimer formation (in words)” value with full-length Grb7 is “in the μM range; also recorded: forms dimers in vitro with a similar affinity to that exhibited by the SH2 domain alone; also recorded: same order of magnitude as that obtained for the SH2 domain alone”.
For the molecule Grb7 SH2 (from UniProt Q14451), in series [1], the Kd (as a rule, a measure of binding affinity in units of concentration) is 2.3 µM.
On to `COc1cccc2c1C(=O)c1c(O)c3c(c(O)c1C2=O)C[C@@](O)(C(=O)CO)C[C@@H]3O[C@H]1C[C@H](N)[C@H](O)[C@H](C)O1` [Doxorubicin], for which the “change of drug EC50 on co-treatment (in words)” value with breast cancer cells is on record as “significant reduction of the drug EC50 value”.

B1: Grb7 SH2 domain (residues 415-532 of human Grb7) (domain or fragment)
chain: GSPASGTSLSAAIHRTQLWFHGRISREESQRLIGQQGLVDGLFLVRESQRNPQGFVLSLCHLQKVKHYLILPSEEEGRLYFSMDDGQTRFTDLLQLVEFHQLNRGILPCLLRHCCTRVAL
notes: first two of the 7 N-terminal residues of the construct, printed as GSPASGT; 15N-labelled (minimal medium with 15NH4Cl) for the NMR titration, unlabelled otherwise; Expected mass 13,672 g/mol; Residues 420-532 are seen in the crystal structure; also called 15N-Grb7 SH2
For B1, the “dimer association compared with previous experiments at 4 °C (in words)” value with Grb7 SH2 domain (20 °C versus 4 °C, ref [38]) is listed as “slightly weaker association”. For the same molecule, the “dimer formation (in words)” value with Grb7 SH2 domain (analytical ultracentrifugation) is on record as “in the μM range”. Further, in series [2], the Kd worked out at 21.8 µM and the stoichiometry N (usually the number of molecules, sites or subunits per partner or assembly) stood at 2.
